Data on 1 molecule can be found in US20210122826A1 (MIT, published 2021).

The target in the assay is T1, human CD161 (human, UniProt Q12918 1-225).
T1 construct: UniProt Q12918; also called hCD161; KLRB1
The assay can be described thus: blocking assay by flow cytometry: 500 nM biCLEC2D on Jurkat hCD161+ cells with 1, 10 or 100 nM antibody, SA-AF647; blocked ligand biCLEC2D; control 500 nM biCLEC2D on Jurkat WT. (Flow cytometry measures light scatter and fluorescence of single cells or particles in a stream.)

B1: KM12.3.2 (antibody, V domains shown)
VH: EVQLVESGGGLVQPGGSLRLSCAASGFTFSSYAMSWIRQAPGKGLEWVSAISGSGGSIYYADSVKGRFTISRDNSKNTLYLQMDSLRAEDTAVYYCARGYSDSYFYGPYYTFDYWGQGTLVTVSS
VL: not shown
For B1, the binding result was “binds”.
